{"source": "FireProtDB (doi:10.1021/bi00150a028)", "settings": "Homo sapiens, pH 3, Thermal, DSC, glycine-HCl 0.05 M, reversible: yes, whole UniProt chain shown"}
{"protein": "Lysozyme C wild type, P61626 (protein) MKALIVLGLVLLSVTVQGKVFERCELARTLKRLGMDGYRGISLANWMCLAKWESGYNTRATNYNAGDRSTDYGIFQINSRYWCNDGKTPGAVNACHLSCSALLQDNIADAVACAKRVVRDPQGIRAWVAWRNRCQNRDVRQYVQGCGV", "values": [{"measurement": "heat capacity change of unfolding", "setting": "57 °C", "value": 1.55, "unit": "kcal/mol/K"}, {"measurement": "unfolding enthalpy (calorimetric)", "setting": "57 °C", "value": 101, "unit": "kcal/mol"}, {"measurement": "unfolding free energy", "setting": "57 °C", "value": 4.6, "unit": "kcal/mol"}, {"measurement": "Tm", "value": 71.4, "unit": "°C"}]}
